Assay results taken from PMC8465852, “The HMGB Protein KlIxr1, a DNA Binding Regulator of Kluyveromyces lactis Gene Expression Involved in Oxidative Metabolism, Growth, and dNTP Synthesis”.

Experiments:
[1] = molecular target: T1, KlIxr1 (Kluyveromyces lactis, UniProt Q6CMQ4 1-464); test: fluorescence anisotropy; 100 nM DNA; FA: 10 mM Tris-HCl pH 8.0, 100 mM KCl, 2 mM DTT, 1 mM EDTA, 500 ug/mL BSA, 25 C, 100 nM DNA; EMSA: 4 C 30 min, 500 nM DNA, 1 ug protein, 1 ug calf thymus DNA, buffer by reference; conditions: protein: recombinant, tags: N-terminal 6xHis, blunt
T1 sequence: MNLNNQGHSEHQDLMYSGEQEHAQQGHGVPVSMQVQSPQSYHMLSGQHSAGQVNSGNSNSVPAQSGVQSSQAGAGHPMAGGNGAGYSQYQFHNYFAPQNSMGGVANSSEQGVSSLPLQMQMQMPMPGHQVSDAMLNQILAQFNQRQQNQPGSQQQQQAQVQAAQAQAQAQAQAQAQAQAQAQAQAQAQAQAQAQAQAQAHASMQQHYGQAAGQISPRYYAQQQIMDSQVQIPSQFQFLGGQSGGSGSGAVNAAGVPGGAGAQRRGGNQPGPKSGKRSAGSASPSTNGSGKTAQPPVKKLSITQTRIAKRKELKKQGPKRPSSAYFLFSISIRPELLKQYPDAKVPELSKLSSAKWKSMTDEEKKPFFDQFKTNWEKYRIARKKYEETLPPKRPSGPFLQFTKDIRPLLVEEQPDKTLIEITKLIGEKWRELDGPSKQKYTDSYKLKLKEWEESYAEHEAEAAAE

[2] = molecular target: T1, KlIxr1; test: EMSA; calf thymus DNA carrier; two retarded bands; FA: 10 mM Tris-HCl pH 8.0, 100 mM KCl, 2 mM DTT, 1 mM EDTA, 500 ug/mL BSA, 25 C, 100 nM DNA; EMSA: 4 C 30 min, 500 nM DNA, 1 ug protein, 1 ug calf thymus DNA, buffer by reference; conditions: protein: recombinant; tags: N-terminal 6xHis; label: 5'-FAM on forward strand (AJVV009f*); blunt

B1: HEM13A (dsDNA)
DNA 1: ATCTTGAATGTATGTTGGTTCAGCCTCTCC
DNA 2: GGAGAGGCTGAACCAACATACATTCAAGAT
Kd ([1]; label: 5'-FAM on forward strand (AJVV045f*)): 15.6 ± 4.27 nM

B2: KlHEM13 promoter 40-mer (both sites) (dsDNA)
DNA 1: ATCTTGAATGTATGTTGGTTCAGCCTCTATTTCTCTCGTA
DNA 2: TACGAGAGAAATAGAGGCTGAACCAACATACATTCAAGAT
binding result [2]: binds

B3: HEM13B (dsDNA)
DNA 1: TGGCCCAGCCTCTATTTCTCTCGTACCGGT
DNA 2: ACCGGTACGAGAGAAATAGAGGCTGGGCCA
Kd ([1]; label: 5'-FAM on forward strand (AJVV050f*)): 155 ± 38.6 nM

B4: KlYCF1 promoter (dsDNA)
DNA 1: TTAATTGCAATTGTTACTGTTGATTTTAAA
DNA 2: TTTAAAATCAACAGTAACAATTGCAATTAA
Kd ([1]; label: 5'-FAM on forward strand (AJVV029f*)): 105 ± 18.9 nM
